# B1: GpH7-A5/GpH7-B3 variant L234_09D/GpL16-k0 (antibody, human IgG1, kappa)
# heavy 1: not shown
# heavy 2: not shown
# light: DIVMTQSPLSLPVTPGEPASISCQASESLVHSNRNTYLHWYLQKPGQSPQLLIYKVSNRFSGVPDRFSGSGSGTDFTLKISRVEAEDVGVYYCSQNTHVPPTFGQGTKVEIERTVAAPSVFIFPPSDEQLKSGTASVVCLLNNFYPREAKVQWKVDNALQSGNSQESVTEQDSKDSTYSLSSTLTLSKADYEKHKVYACEVTHQGLSSPVTKSFNRGEC
# notes: He Ab; copies: 1 + 1 + 2
# B2: GpH7-A5/GpH7-B3 variant P271_13S/GpL16-k0 (antibody, human IgG1, kappa)
# heavy 1: not shown
# heavy 2: not shown
# light: B1 light
# notes: He Ab; copies: 1 + 1 + 2
# B3: GpH7-A5/GpH7-B3 variant P238_08L/GpL16-k0 (antibody, human IgG1, kappa)
# heavy 1: not shown
# heavy 2: not shown
# light: B1 light
# notes: He Ab; copies: 1 + 1 + 2
# B4: GpH7-A5/GpH7-B3 variant L328_19Q/GpL16-k0 (antibody, human IgG1, kappa)
# heavy 1: not shown
# heavy 2: not shown
# light: B1 light
# notes: He Ab; copies: 1 + 1 + 2
# B5: GpH7-A5/GpH7-B3 variant P238_09D/GpL16-k0 (antibody, human IgG1, kappa)
# heavy 1: not shown
# heavy 2: not shown
# light: B1 light
# notes: He Ab; copies: 1 + 1 + 2
# B6: GpH7-A5/GpH7-B3 variant L234_10E/GpL16-k0 (antibody, human IgG1, kappa)
# heavy 1: not shown
# heavy 2: not shown
# light: B1 light
# notes: He Ab; copies: 1 + 1 + 2
# B7: GpH7-A5/GpH7-B3 variant L328_14T/GpL16-k0 (antibody, human IgG1, kappa)
# heavy 1: not shown
# heavy 2: not shown
# light: B1 light
# notes: He Ab; copies: 1 + 1 + 2
# B8: GpH7-A5/GpH7-B3 variant P238_19Q/GpL16-k0 (antibody, human IgG1, kappa)
# heavy 1: not shown
# heavy 2: not shown
# light: B1 light
# notes: He Ab; copies: 1 + 1 + 2
# B9: GpH7-A5/GpH7-B3 variant L234_13S/GpL16-k0 (antibody, human IgG1, kappa)
# heavy 1: not shown
# heavy 2: not shown
# light: B1 light
# notes: He Ab; copies: 1 + 1 + 2
# B10: GpH7-A5/GpH7-B3 variant L234_15Y/GpL16-k0 (antibody, human IgG1, kappa)
# heavy 1: not shown
# heavy 2: not shown
# light: B1 light
# notes: He Ab; copies: 1 + 1 + 2
# B11: GpH7-A5/GpH7-B3 variant L235_13S/GpL16-k0 (antibody, human IgG1, kappa)
# heavy 1: not shown
# heavy 2: not shown
# light: B1 light
# notes: He Ab; copies: 1 + 1 + 2
# B12: GpH7-A5/GpH7-B3 variant L235_20W/GpL16-k0 (antibody, human IgG1, kappa)
# heavy 1: not shown
# heavy 2: not shown
# light: B1 light
# notes: He Ab; copies: 1 + 1 + 2
# B13: GpH7-A5/GpH7-B3 variant P271_12R/GpL16-k0 (antibody, human IgG1, kappa)
# heavy 1: not shown
# heavy 2: not shown
# light: B1 light
# notes: He Ab; copies: 1 + 1 + 2
# B14: GpH7-A5/GpH7-B3 variant L235_05P/GpL16-k0 (antibody, human IgG1, kappa)
# heavy 1: not shown
# heavy 2: not shown
# light: B1 light
# notes: He Ab; copies: 1 + 1 + 2
# B15: GpH7-A5/GpH7-B3 variant P238_10E/GpL16-k0 (antibody, human IgG1, kappa)
# heavy 1: not shown
# heavy 2: not shown
# light: B1 light
# notes: He Ab; copies: 1 + 1 + 2
# B16: GpH7-A5/GpH7-B3 variant P271_01G/GpL16-k0 (antibody, human IgG1, kappa)
# heavy 1: not shown
# heavy 2: not shown
# light: B1 light
# notes: He Ab; copies: 1 + 1 + 2
# B17: GpH7-A5/GpH7-B3 variant P271_07I/GpL16-k0 (antibody, human IgG1, kappa)
# heavy 1: not shown
# heavy 2: not shown
# light: B1 light
# notes: He Ab; copies: 1 + 1 + 2
# B18: GpH7-A5/GpH7-B3 variant P238_15Y/GpL16-k0 (antibody, human IgG1, kappa)
# heavy 1: not shown
# heavy 2: not shown
# light: B1 light
# notes: He Ab; copies: 1 + 1 + 2
# B19: GpH7-A5/GpH7-B3 variant P271_06M/GpL16-k0 (antibody, human IgG1, kappa)
# heavy 1: not shown
# heavy 2: not shown
# light: B1 light
# notes: He Ab; copies: 1 + 1 + 2
# B20: GpH7-A5/GpH7-B3 variant L234_20W/GpL16-k0 (antibody, human IgG1, kappa)
# heavy 1: not shown
# heavy 2: not shown
# light: B1 light
# notes: He Ab; copies: 1 + 1 + 2
# B21: GpH7-A5/GpH7-B3 variant L235_07I/GpL16-k0 (antibody, human IgG1, kappa)
# heavy 1: not shown
# heavy 2: not shown
# light: B1 light
# notes: He Ab; copies: 1 + 1 + 2
# B22: GpH7-A5/GpH7-B3 variant P271_02A/GpL16-k0 (antibody, human IgG1, kappa)
# heavy 1: not shown
# heavy 2: not shown
# light: B1 light
# notes: He Ab; copies: 1 + 1 + 2
# B23: GpH7-A5/GpH7-B3 variant L328_18N/GpL16-k0 (antibody, human IgG1, kappa)
# heavy 1: not shown
# heavy 2: not shown
# light: B1 light
# notes: He Ab; copies: 1 + 1 + 2
# B24: GpH7-A5/GpH7-B3 variant L235_19Q/GpL16-k0 (antibody, human IgG1, kappa)
# heavy 1: not shown
# heavy 2: not shown
# light: B1 light
# notes: He Ab; copies: 1 + 1 + 2
# B25: GpH7-A5/GpH7-B3 variant L235_15Y/GpL16-k0 (antibody, human IgG1, kappa)
# heavy 1: not shown
# heavy 2: not shown
# light: B1 light
# notes: He Ab; copies: 1 + 1 + 2
# B26: GpH7-A5/GpH7-B3 variant L235_03V/GpL16-k0 (antibody, human IgG1, kappa)
# heavy 1: not shown
# heavy 2: not shown
# light: B1 light
# notes: He Ab; copies: 1 + 1 + 2
# B27: GpH7-A5/GpH7-B3 variant L328_15Y/GpL16-k0 (antibody, human IgG1, kappa)
# heavy 1: not shown
# heavy 2: not shown
# light: B1 light
# notes: He Ab; copies: 1 + 1 + 2
# B28: GpH7-A5/GpH7-B3 variant P271_03V/GpL16-k0 (antibody, human IgG1, kappa)
# heavy 1: not shown
# heavy 2: not shown
# light: B1 light
# notes: He Ab; copies: 1 + 1 + 2
# B29: GpH7-A5/GpH7-B3 variant L235_09D/GpL16-k0 (antibody, human IgG1, kappa)
# heavy 1: not shown
# heavy 2: not shown
# light: B1 light
# notes: He Ab; copies: 1 + 1 + 2
# B30: GpH7-A5/GpH7-B3 variant L235_06M/GpL16-k0 (antibody, human IgG1, kappa)
# heavy 1: not shown
# heavy 2: not shown
# light: B1 light
# notes: He Ab; copies: 1 + 1 + 2
# B31: GpH7-A5/GpH7-B3 variant L328_16H/GpL16-k0 (antibody, human IgG1, kappa)
# heavy 1: not shown
# heavy 2: not shown
# light: B1 light
# notes: He Ab; copies: 1 + 1 + 2
# B32: GpH7-A5/GpH7-B3 variant P271_10E/GpL16-k0 (antibody, human IgG1, kappa)
# heavy 1: not shown
# heavy 2: not shown
# light: B1 light
# notes: He Ab; copies: 1 + 1 + 2
# B33: GpH7-A5/GpH7-B3 variant L328_07I/GpL16-k0 (antibody, human IgG1, kappa)
# heavy 1: not shown
# heavy 2: not shown
# light: B1 light
# notes: He Ab; copies: 1 + 1 + 2
# B34: GpH7-A5/GpH7-B3 variant L328_02A/GpL16-k0 (antibody, human IgG1, kappa)
# heavy 1: not shown
# heavy 2: not shown
# light: B1 light
# notes: He Ab; copies: 1 + 1 + 2
# B35: GpH7-A5/GpH7-B3 variant L328_13S/GpL16-k0 (antibody, human IgG1, kappa)
# heavy 1: not shown
# heavy 2: not shown
# light: B1 light
# notes: He Ab; copies: 1 + 1 + 2
# B36: GpH7-A5/GpH7-B3 variant L328_06M/GpL16-k0 (antibody, human IgG1, kappa)
# heavy 1: not shown
# heavy 2: not shown
# light: B1 light
# notes: He Ab; copies: 1 + 1 + 2
# B37: GpH7-A5/GpH7-B3 variant N325_13S/GpL16-k0 (antibody, human IgG1, kappa)
# heavy 1: not shown
# heavy 2: not shown
# light: B1 light
# notes: He Ab; copies: 1 + 1 + 2
# B38: GpH7-A5/GpH7-B3 variant N325_09D/GpL16-k0 (antibody, human IgG1, kappa)
# heavy 1: not shown
# heavy 2: not shown
# light: B1 light
# notes: He Ab; copies: 1 + 1 + 2
# B39: GpH7-A5/GpH7-B3 variant L235_01G/GpL16-k0 (antibody, human IgG1, kappa)
# heavy 1: not shown
# heavy 2: not shown
# light: B1 light
# notes: He Ab; copies: 1 + 1 + 2
# B40: GpH7-A5/GpH7-B3 variant N325_16H/GpL16-k0 (antibody, human IgG1, kappa)
# heavy 1: not shown
# heavy 2: not shown
# light: B1 light
# notes: He Ab; copies: 1 + 1 + 2
# B41: GpH7-A5/GpH7-B3 variant L235_02A/GpL16-k0 (antibody, human IgG1, kappa)
# heavy 1: not shown
# heavy 2: not shown
# light: B1 light
# notes: He Ab; copies: 1 + 1 + 2
# B42: GpH7-A5/GpH7-B3 variant P271_04F/GpL16-k0 (antibody, human IgG1, kappa)
# heavy 1: not shown
# heavy 2: not shown
# light: B1 light
# notes: He Ab; copies: 1 + 1 + 2
# B43: GpH7-A5/GpH7-B3 variant L235_10E/GpL16-k0 (antibody, human IgG1, kappa)
# heavy 1: not shown
# heavy 2: not shown
# light: B1 light
# notes: He Ab; copies: 1 + 1 + 2
# B44: GpH7-A5/GpH7-B3 variant L235_04F/GpL16-k0 (antibody, human IgG1, kappa)
# heavy 1: not shown
# heavy 2: not shown
# light: B1 light
# notes: He Ab; copies: 1 + 1 + 2
# B45: GpH7-A5/GpH7-B3 variant P271_09D/GpL16-k0 (antibody, human IgG1, kappa)
# heavy 1: not shown
# heavy 2: not shown
# light: B1 light
# notes: He Ab; copies: 1 + 1 + 2
# B46: GpH7-A5/GpH7-B3 variant L235_14T/GpL16-k0 (antibody, human IgG1, kappa)
# heavy 1: not shown
# heavy 2: not shown
# light: B1 light
# notes: He Ab; copies: 1 + 1 + 2
# B47: GpH7-A5/GpH7-B3 variant L328_04F/GpL16-k0 (antibody, human IgG1, kappa)
# heavy 1: not shown
# heavy 2: not shown
# light: B1 light
# notes: He Ab; copies: 1 + 1 + 2
# B48: GpH7-A5/GpH7-B3 variant L235_16H/GpL16-k0 (antibody, human IgG1, kappa)
# heavy 1: not shown
# heavy 2: not shown
# light: B1 light
# notes: He Ab; copies: 1 + 1 + 2
# B49: GpH7-A5/GpH7-B3 variant P271_11K/GpL16-k0 (antibody, human IgG1, kappa)
# heavy 1: not shown
# heavy 2: not shown
# light: B1 light
# notes: He Ab; copies: 1 + 1 + 2
# B50: GpH7-A5/GpH7-B3 variant L234_19Q/GpL16-k0 (antibody, human IgG1, kappa)
# heavy 1: not shown
# heavy 2: not shown
# light: B1 light
# notes: He Ab; copies: 1 + 1 + 2
# B51: GpH7-A5/GpH7-B3 variant L235_18N/GpL16-k0 (antibody, human IgG1, kappa)
# heavy 1: not shown
# heavy 2: not shown
# light: B1 light
# notes: He Ab; copies: 1 + 1 + 2
# B52: GpH7-A5/GpH7-B3 variant L328_03V/GpL16-k0 (antibody, human IgG1, kappa)
# heavy 1: not shown
# heavy 2: not shown
# light: B1 light
# notes: He Ab; copies: 1 + 1 + 2
# B53: GpH7-A5/GpH7-B3 variant L234_18N/GpL16-k0 (antibody, human IgG1, kappa)
# heavy 1: not shown
# heavy 2: not shown
# light: B1 light
# notes: He Ab; copies: 1 + 1 + 2
# B54: GpH7-A5/GpH7-B3 variant L234_16H/GpL16-k0 (antibody, human IgG1, kappa)
# heavy 1: not shown
# heavy 2: not shown
# light: B1 light
# notes: He Ab; copies: 1 + 1 + 2
# B55: GpH7-A5/GpH7-B3 variant P271_08L/GpL16-k0 (antibody, human IgG1, kappa)
# heavy 1: not shown
# heavy 2: not shown
# light: B1 light
# notes: He Ab; copies: 1 + 1 + 2
# B56: GpH7-A5/GpH7-B3 variant L234_14T/GpL16-k0 (antibody, human IgG1, kappa)
# heavy 1: not shown
# heavy 2: not shown
# light: B1 light
# notes: He Ab; copies: 1 + 1 + 2
# Molecular target: T1, FcγRIIIa extracellular domain, C-terminal His tag (human, UniProt P08637 17-208)
# T1 construct: extracellular domain; also called 3a
# Experiment: SPR, binding activity relative to GpH7-A5/GpH7-B3/GpL16-k0 (=100)
# T1 sequence (P08637 other isoform, or with tags, fused parts or gaps): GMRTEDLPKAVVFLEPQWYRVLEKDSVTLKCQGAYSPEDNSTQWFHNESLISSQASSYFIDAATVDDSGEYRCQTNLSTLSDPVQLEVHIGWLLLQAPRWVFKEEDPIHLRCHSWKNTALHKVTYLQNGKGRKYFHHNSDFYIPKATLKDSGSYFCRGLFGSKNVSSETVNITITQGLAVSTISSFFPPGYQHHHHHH
row,Binder,He/Con 3a [%]
1,B1,113
2,B2,79.8
3,B3,71.3
4,B4,83.4
5,B5,100
6,B6,111
7,B7,77.4
8,B8,52.7
9,B9,68.1
10,B10,126
11,B11,67.2
12,B12,73.8
13,B13,87.6
14,B14,68.6
15,B15,98.9
16,B16,119
17,B17,80.2
18,B18,61
19,B19,74

row,Binder,He/Con 3a [%]
1,B20,103
2,B21,92.8
3,B22,83.7
4,B23,51.1
5,B24,68.1
6,B25,77.8
7,B26,94.6
8,B27,70.2
9,B28,73.5
10,B29,88.5
11,B30,75.6
12,B31,55.9
13,B32,98.2
14,B33,86.4
15,B34,81.3
16,B35,73.7
17,B36,80.8
18,B37,71.9
19,B38,53

row,Binder,He/Con 3a [%]
1,B39,56.7
2,B40,68
3,B41,72
4,B42,65.6
5,B43,85.6
6,B44,76.4
7,B45,97.7
8,B46,73.2
9,B47,81.5
10,B48,57.1
11,B49,92.5
12,B50,77.1
13,B51,65
14,B52,80.9
15,B53,88.2
16,B54,76.8
17,B55,74.5
18,B56,69.8

# Reference: patent US20260167699A1 (Chugai, published 2026)
